Data as given in the supplement of paper PMC10065799, “High-throughput profiling of sequence recognition by tyrosine kinases and SH2 domains using bacterial peptide display” (eLife, 2023).

Legend:
AncSZ = experiment: phosphorylation enrichment, bacterial display (enrichment ratio); higher = better substrate or ligand; peptides without Tyr show the background
EPHB1 = EPHB1 (UniProt P54762); experiment: as above
EPHB2 = EPHB2 (UniProt P29323); experiment: as above
FGFR1 = FGFR1 (UniProt P11362); experiment: as above
FGFR3 = FGFR3 (UniProt P22607); experiment: as above
Sequence of FGFR3 (P22607 whole entry, looked up): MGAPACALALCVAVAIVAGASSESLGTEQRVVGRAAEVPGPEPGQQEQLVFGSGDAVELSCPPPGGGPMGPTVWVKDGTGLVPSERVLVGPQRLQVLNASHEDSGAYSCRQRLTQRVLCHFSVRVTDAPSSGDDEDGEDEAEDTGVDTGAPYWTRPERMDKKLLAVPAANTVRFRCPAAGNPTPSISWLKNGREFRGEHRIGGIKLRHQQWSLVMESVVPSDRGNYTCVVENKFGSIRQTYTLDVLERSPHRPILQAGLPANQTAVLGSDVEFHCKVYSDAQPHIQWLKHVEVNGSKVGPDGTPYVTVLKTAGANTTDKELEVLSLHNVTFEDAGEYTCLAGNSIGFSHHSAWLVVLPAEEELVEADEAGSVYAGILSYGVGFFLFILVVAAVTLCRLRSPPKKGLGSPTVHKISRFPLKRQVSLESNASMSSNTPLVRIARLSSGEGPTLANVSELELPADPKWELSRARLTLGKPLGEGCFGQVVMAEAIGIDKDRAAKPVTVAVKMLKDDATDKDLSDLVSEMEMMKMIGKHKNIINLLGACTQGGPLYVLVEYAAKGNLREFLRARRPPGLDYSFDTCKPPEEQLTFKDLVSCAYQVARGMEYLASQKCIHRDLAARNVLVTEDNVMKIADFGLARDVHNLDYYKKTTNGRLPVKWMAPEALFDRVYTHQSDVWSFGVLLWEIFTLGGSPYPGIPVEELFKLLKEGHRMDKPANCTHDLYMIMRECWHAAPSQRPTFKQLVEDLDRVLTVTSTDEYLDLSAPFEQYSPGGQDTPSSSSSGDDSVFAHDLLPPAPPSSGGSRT

Fer (mouse) = experiment: as above
Fes = Fes (UniProt P07332); experiment: as above
Fyn = Fyn (UniProt P06241); experiment: as above
Sequence of Fyn (P06241 whole entry, looked up): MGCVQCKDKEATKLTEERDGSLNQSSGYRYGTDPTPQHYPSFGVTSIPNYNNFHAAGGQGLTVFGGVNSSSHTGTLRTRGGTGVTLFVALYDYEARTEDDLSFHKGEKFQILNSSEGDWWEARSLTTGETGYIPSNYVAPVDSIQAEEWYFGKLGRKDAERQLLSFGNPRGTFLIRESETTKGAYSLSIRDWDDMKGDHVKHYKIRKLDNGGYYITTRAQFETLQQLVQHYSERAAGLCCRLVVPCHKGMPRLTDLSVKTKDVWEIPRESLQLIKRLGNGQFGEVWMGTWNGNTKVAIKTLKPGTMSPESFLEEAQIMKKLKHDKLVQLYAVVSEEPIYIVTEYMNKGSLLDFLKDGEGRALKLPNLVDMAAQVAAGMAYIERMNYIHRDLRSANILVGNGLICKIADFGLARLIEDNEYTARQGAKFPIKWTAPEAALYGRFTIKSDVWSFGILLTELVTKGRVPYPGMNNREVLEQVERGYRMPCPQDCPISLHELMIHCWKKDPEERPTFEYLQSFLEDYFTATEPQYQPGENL

Hck = Hck (UniProt P08631); experiment: as above
Sequence of Hck (P08631 whole entry, looked up): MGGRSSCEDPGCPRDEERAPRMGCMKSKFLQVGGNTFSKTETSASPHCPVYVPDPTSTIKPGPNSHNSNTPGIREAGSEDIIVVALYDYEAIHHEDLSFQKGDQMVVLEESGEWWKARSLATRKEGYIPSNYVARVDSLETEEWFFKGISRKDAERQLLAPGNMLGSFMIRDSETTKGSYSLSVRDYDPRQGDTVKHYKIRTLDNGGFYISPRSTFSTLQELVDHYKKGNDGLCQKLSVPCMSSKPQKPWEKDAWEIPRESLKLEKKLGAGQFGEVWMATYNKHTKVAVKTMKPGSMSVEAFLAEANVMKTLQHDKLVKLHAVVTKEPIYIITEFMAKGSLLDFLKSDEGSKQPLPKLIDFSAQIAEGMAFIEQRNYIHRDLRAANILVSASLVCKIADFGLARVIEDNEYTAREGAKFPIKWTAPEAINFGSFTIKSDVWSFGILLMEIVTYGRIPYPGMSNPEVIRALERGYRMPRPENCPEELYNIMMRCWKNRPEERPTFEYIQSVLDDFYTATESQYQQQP

Jak2 = Jak2 (UniProt O60674); experiment: as above
Sequence of Jak2 (O60674 whole entry, looked up): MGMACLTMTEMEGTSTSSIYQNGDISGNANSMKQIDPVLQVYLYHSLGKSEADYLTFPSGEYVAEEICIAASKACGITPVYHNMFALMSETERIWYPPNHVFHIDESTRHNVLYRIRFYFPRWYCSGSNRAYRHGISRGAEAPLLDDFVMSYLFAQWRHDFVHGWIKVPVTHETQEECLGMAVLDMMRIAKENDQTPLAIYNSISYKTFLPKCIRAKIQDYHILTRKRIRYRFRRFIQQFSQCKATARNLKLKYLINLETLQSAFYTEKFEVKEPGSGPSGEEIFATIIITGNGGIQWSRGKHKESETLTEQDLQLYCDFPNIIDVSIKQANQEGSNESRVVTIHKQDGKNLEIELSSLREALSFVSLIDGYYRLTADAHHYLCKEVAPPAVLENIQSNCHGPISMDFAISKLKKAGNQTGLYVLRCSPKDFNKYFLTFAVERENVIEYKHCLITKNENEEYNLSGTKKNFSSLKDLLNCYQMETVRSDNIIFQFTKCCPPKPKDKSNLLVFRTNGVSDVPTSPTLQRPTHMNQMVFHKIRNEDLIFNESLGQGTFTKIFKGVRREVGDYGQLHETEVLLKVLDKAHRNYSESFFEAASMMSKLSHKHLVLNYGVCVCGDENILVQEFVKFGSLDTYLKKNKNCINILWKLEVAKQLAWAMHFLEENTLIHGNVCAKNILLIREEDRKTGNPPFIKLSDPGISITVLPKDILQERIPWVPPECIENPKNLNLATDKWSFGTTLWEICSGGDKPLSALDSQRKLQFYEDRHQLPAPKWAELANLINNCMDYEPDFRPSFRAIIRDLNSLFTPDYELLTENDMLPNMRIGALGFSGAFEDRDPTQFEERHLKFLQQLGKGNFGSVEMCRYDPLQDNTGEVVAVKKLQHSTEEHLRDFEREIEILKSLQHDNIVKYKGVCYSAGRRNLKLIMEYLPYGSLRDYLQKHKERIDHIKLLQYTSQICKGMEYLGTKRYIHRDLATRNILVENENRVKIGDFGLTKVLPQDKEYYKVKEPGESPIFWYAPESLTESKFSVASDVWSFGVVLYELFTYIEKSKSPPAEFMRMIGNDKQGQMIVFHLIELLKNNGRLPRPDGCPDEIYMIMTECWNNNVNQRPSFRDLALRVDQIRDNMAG

MERTK = MERTK (UniProt Q12866); experiment: as above
c-Abl (mouse) = experiment: as above
c-Src = experiment: as above
Grb2 SH2 = Grb2 SH2 (UniProt P62993); experiment: SH2 binding enrichment of the phosphorylated peptide, bacterial display (enrichment ratio); higher = better substrate or ligand; peptides without Tyr show the background
SHP2-C SH2 = experiment: as above
c-Src SH2 = experiment: as above
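For SH2 binding enrichment of the phosphorylated peptide, bacterial display in this document: peptide library displayed on the E. coli surface as eCPX fusions, selected cells deep-sequenced, score is each peptide's frequency after selection divided by its frequency in the input.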
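For phosphorylation enrichment, bacterial display in this document: 11-residue human phosphosite peptides and single-mutation variants displayed on the E. coli surface, counted by deep sequencing, each peptide's frequency after selection divided by its frequency in the unselected input library; frequency after pTyr selection over input frequency; kinase dosed for 20-30% of maximal phosphorylation in three min.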

Sequence of EPHB2 (P29323 whole entry, looked up): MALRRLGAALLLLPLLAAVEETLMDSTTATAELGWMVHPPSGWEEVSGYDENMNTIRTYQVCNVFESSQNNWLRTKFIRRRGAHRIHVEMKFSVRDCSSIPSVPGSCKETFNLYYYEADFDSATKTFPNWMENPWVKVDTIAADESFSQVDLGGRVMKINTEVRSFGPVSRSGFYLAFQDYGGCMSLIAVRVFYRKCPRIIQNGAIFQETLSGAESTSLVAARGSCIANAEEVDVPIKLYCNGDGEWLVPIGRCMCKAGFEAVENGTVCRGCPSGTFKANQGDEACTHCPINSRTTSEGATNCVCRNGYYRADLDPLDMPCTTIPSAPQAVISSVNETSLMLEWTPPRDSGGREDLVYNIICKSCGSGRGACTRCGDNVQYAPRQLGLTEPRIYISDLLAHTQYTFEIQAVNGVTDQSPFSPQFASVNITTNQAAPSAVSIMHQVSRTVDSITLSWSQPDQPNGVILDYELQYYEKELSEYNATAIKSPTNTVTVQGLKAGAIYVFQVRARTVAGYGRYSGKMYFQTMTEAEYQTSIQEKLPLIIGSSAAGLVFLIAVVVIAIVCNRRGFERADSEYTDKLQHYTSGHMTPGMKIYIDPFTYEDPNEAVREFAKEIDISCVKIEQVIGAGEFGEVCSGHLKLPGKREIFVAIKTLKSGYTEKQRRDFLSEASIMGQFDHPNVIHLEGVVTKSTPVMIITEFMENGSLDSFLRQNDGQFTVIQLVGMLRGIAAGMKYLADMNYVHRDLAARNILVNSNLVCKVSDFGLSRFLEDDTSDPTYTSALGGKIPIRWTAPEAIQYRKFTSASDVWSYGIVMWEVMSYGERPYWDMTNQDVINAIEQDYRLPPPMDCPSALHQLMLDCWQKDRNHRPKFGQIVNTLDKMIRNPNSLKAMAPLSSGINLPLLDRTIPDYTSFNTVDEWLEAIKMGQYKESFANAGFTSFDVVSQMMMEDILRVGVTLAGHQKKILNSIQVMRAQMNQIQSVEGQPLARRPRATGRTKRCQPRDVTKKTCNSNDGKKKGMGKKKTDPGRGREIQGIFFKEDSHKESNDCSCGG
Sequence of EPHB1 (P54762 whole entry, looked up): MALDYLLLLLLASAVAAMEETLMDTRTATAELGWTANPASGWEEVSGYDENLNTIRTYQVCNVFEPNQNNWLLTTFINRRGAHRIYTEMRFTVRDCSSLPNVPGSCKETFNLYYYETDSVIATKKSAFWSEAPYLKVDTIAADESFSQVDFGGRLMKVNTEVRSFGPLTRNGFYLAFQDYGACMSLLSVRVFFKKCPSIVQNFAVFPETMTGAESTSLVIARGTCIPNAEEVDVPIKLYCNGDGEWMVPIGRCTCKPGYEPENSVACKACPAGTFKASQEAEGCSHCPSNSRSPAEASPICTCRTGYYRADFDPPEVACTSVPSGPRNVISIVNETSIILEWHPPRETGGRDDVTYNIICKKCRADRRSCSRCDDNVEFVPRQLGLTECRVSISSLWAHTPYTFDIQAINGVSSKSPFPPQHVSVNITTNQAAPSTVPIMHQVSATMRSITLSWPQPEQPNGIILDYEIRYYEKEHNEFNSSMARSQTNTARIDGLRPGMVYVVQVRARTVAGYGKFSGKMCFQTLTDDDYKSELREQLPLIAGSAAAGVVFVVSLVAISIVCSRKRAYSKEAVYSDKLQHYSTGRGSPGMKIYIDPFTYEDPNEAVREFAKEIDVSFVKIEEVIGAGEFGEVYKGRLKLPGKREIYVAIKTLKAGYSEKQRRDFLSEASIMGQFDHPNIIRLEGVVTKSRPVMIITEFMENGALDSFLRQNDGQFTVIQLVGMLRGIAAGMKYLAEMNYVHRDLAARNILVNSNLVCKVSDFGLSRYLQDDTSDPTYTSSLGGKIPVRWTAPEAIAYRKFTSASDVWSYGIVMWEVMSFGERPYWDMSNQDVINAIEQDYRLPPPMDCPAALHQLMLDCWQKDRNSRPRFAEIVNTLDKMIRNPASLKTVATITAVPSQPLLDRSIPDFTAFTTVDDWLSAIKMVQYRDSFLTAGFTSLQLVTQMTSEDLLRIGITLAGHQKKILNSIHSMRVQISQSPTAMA

Row | Sequence | SH2 binding enrichment (Grb2 SH2) | SH2 binding enrichment (SHP2-C SH2) | SH2 binding enrichment (c-Src SH2) | phosphorylation enrichment (AncSZ) | phosphorylation enrichment (EPHB1) | phosphorylation enrichment (EPHB2) | phosphorylation enrichment (FGFR1) | phosphorylation enrichment (FGFR3) | phosphorylation enrichment (Fer (mouse)) | phosphorylation enrichment (Fes) | phosphorylation enrichment (Fyn) | phosphorylation enrichment (Hck) | phosphorylation enrichment (Jak2) | phosphorylation enrichment (MERTK) | phosphorylation enrichment (c-Abl (mouse)) | phosphorylation enrichment (c-Src)
1 | HESEIYCKVCY [CSRP3_Y57] | 1.58 | 1.81 | 1.8 | 1.41 | 0.925 | 0.782 | 1.03 | 0.855 | 2.51 | 1.25 | 5.52 | 7.96 | 1.14 | 2.65 | 1.01 | 7.01
2 | QYQEKYKQVEQ [HCN4_Y531] | 0.958 | 0.971 | 0.743 | 1.44 | 0.908 | 0.721 | 1.17 | 1.3 | 0.576 | 1.12 | 0.821 | 0.579 | 0.858 | 0.375 | 0.493 | 0.491
3 | QPSALYEDRFL [ASS1_Y83_S79P_YF] | 0.783 | 0.684 | 0.633 | 1.4 | 3.04 | 2.01 | 0.816 | 1.12 | 10.6 | 1.4 | 1.77 | 6.97 | 0.968 | 1.11 | 0.881 | 1.41
4 | GGQSVYHVNLH [HINT1_Y109_H112N] | 0.698 | 0.663 | 0.491 | 0.583 | 0.495 | 0.364 | 0.429 | 0.376 | 0.337 | 0.617 | 1.01 | 0.583 | 0.491 | 0.387 | 0.491 | 1.03
5 | GRSTFYWPSPR [GAGE12J_Y10_R13S_YF] | 1.49 | 1.64 | 1.26 | 0.643 | 0.541 | 0.693 | 0.665 | 0.708 | 0.399 | 0.697 | 0.466 | 0.559 | 0.713 | 6.43 | 0.726 | 0.551
6 | LDFNEYFRGLN [HPRT1_Y198_D201G_YF] | 1.17 | 1.08 | 0.862 | 1.29 | 0.832 | 1.41 | 0.788 | 0.933 | 0.62 | 1.45 | 0.746 | 0.873 | 1.92 | 0.714 | 0.799 | 0.595
7 | NNTFLYQLVFD [EXO1_Y284] | 1.44 | 1.15 | 1.14 | 1.35 | 5.34 | 4.11 | 1.65 | 1.72 | 4.67 | 1.21 | 1.7 | 2.58 | 1.14 | 5.99 | 0.684 | 2.28
8 | DLEKTYNTFRS [B4GALNT2_Y538_A533D_YF] | 0.846 | 0.629 | 0.506 | 0.656 | 0.445 | 0.319 | 0.431 | 0.55 | 0.391 | 0.851 | 0.967 | 0.734 | 0.736 | 0.291 | 0.523 | 1.75
9 | PIFEGYGLPHA [ACTA1_Y171_A172G_YF] | 0.612 | 0.581 | 0.516 | 0.806 | 0.469 | 0.5 | 0.628 | 0.451 | 0.744 | 0.866 | 0.701 | 0.642 | 0.836 | 0.641 | 0.872 | 0.547
10 | DEFLEYRRIVG [FAM221A_Y20_YF] | 0.945 | 1 | 0.53 | 0.83 | 0.469 | 0.439 | 0.466 | 0.551 | 0.526 | 1.17 | 0.505 | 0.537 | 0.964 | 0.493 | 0.797 | 0.507
11 | ADEQIYWQIAA [CSKtide_2014] | 0.649 | 0.515 | 0.439 | 2.59 | 2.64 | 1.37 | 7.87 | 6.65 | 2.25 | 1.56 | 5.62 | 4.33 | 1.58 | 3.12 | 5.09 | 4.66
12 | YGMQLYQKYMH [GRB14_Y347_N349K] | 0.824 | 0.64 | 0.548 | 0.844 | 1.15 | 2.42 | 0.572 | 0.581 | 2.09 | 0.694 | 1.31 | 2.08 | 0.561 | 1.92 | 0.648 | 2.29
13 | CEAMEYPESKQ [BTK_Y511_L512P] | 0.976 | 0.728 | 0.66 | 1.28 | 0.676 | 0.735 | 0.571 | 0.736 | 0.705 | 1.42 | 0.543 | 0.572 | 1.3 | 0.46 | 0.952 | 0.548
14 | ENELTYFCCKK [CD59_Y86_YF] | 0.975 | 0.935 | 0.711 | 1.32 | 0.465 | 0.543 | 0.867 | 0.711 | 0.478 | 1.04 | 1.08 | 1.18 | 2.65 | 0.703 | 0.737 | 2.21
15 | LERYIYNREEL [HLA-DPB1_Y59_F64L] | 0.914 | 0.709 | 0.852 | 0.713 | 0.653 | 0.407 | 0.41 | 0.58 | 0.444 | 0.944 | 0.987 | 1.55 | 0.731 | 0.371 | 0.777 | 1.93
16 | RFLTRYIFNRE [HLA-DQB1_Y62_V59L_YF] | 0.67 | 1.17 | 0.593 | 1 | 0.624 | 0.567 | 0.408 | 0.674 | 0.897 | 1.17 | 0.606 | 0.452 | 1.29 | 0.578 | 0.631 | 0.706
17 | LEQGEYALRSH [HADHB_Y244_D242G] | 0.752 | 0.788 | 0.55 | 0.935 | 0.521 | 0.556 | 0.736 | 0.505 | 0.564 | 0.993 | 0.747 | 0.697 | 0.855 | 0.567 | 0.815 | 0.681

Now from value to sequence, other results behind:

Row | SH2 binding enrichment (Grb2 SH2) | SH2 binding enrichment (SHP2-C SH2) | SH2 binding enrichment (c-Src SH2) | Sequence | phosphorylation enrichment (AncSZ) | phosphorylation enrichment (EPHB1) | phosphorylation enrichment (EPHB2) | phosphorylation enrichment (FGFR1) | phosphorylation enrichment (FGFR3) | phosphorylation enrichment (Fer (mouse)) | phosphorylation enrichment (Fes) | phosphorylation enrichment (Fyn) | phosphorylation enrichment (Hck) | phosphorylation enrichment (Jak2) | phosphorylation enrichment (MERTK) | phosphorylation enrichment (c-Abl (mouse)) | phosphorylation enrichment (c-Src)
18 | 0.664 | 0.518 | 0.55 | NNDLCYWVLEL [IARS1_Y434_P437L] | 2.47 | 1.37 | 1.05 | 7.77 | 7.8 | 1.33 | 1.88 | 5.45 | 4.01 | 3.65 | 2.33 | 1.31 | 5.34
19 | 0.876 | 0.61 | 0.644 | QCQLKYSETPF [SIX6OS1_Y129_Y125C] | 1.24 | 0.634 | 0.722 | 0.68 | 0.842 | 0.798 | 1.32 | 0.558 | 0.749 | 1.01 | 0.82 | 0.933 | 0.717
20 | 1.15 | 1.32 | 1.07 | CTTIHNNFMCN [TP53_Y234_Y234N_YF] | 0.879 | 0.606 | 0.591 | 0.51 | 0.623 | 0.558 | 0.974 | 0.507 | 0.517 | 0.95 | 0.459 | 0.593 | 0.439
21 | 0.758 | 0.548 | 0.58 | HFGCIYHGTLL [MET_Y1093_V1092I] | 1.4 | 0.714 | 0.951 | 0.984 | 0.931 | 0.716 | 1.46 | 1 | 0.949 | 1.38 | 0.527 | 1.34 | 4.15
22 | 1.28 | 1.16 | 1.2 | TWSPKYTLRSH [STRN3_Y474_N471S] | 0.735 | 0.593 | 0.477 | 0.353 | 0.529 | 0.389 | 0.87 | 0.445 | 0.419 | 0.728 | 0.426 | 0.52 | 0.348
23 | 1.09 | 0.729 | 0.519 | SPFAVYLFFTF [RPGRIP1_Y826_R827L_YF] | 0.99 | 0.434 | 0.744 | 0.467 | 0.63 | 0.335 | 0.925 | 0.477 | 0.361 | 0.891 | 0.34 | 0.754 | 0.425
24 | 1.38 | 1.51 | 1 | CTTIHYMFMCN [TP53_Y234_N235M_YF] | 1.05 | 0.608 | 0.668 | 0.526 | 0.659 | 0.555 | 1.22 | 0.445 | 0.552 | 1.02 | 0.367 | 0.673 | 0.38
25 | 0.937 | 4.68 | 6.74 | CNTIHYNYMCN [TP53_Y234_T230N] | 0.897 | 0.575 | 0.581 | 0.586 | 0.653 | 0.554 | 0.865 | 0.413 | 0.428 | 0.799 | 0.521 | 0.713 | 0.532
26 | 0.717 | 0.608 | 0.419 | SYCYRYRCAAR [SUMF1_Y344] | 0.789 | 0.309 | 0.512 | 0.538 | 0.448 | 0.37 | 0.651 | 0.484 | 0.386 | 0.728 | 0.549 | 0.776 | 0.54
27 | 0.821 | 1.99 | 0.363 | FRRITYFNWRH [PDE6B_Y556_H557Y_YF] | 0.817 | 0.626 | 0.625 | 0.553 | 0.476 | 0.423 | 0.8 | 0.607 | 0.832 | 0.852 | 0.615 | 0.573 | 0.673
28 | 0.868 | 1.43 | 0.375 | GSSSSYGQHGS [HRNR_Y517] | 0.376 | 0.315 | 0.343 | 0.396 | 0.293 | 0.316 | 0.472 | 0.376 | 0.339 | 0.352 | 0.309 | 0.322 | 0.256
29 | 0.811 | 0.505 | 0.471 | KQELVYPNKKL [OPTN_Y356_T357P] | 0.576 | 0.33 | 0.358 | 0.356 | 0.417 | 0.323 | 0.743 | 0.324 | 0.293 | 0.443 | 0.374 | 0.561 | 0.349
30 | 0.783 | 0.584 | 0.486 | SFCFRYRCAPR [SUMF1_Y344_A348P_YF] | 0.883 | 0.527 | 0.549 | 0.509 | 0.587 | 0.726 | 0.69 | 0.605 | 0.633 | 0.811 | 0.73 | 0.75 | 0.701
31 | 1.13 | 0.725 | 0.409 | RAQIRYAQEHD [NSD1_Y1987_R1984Q] | 1.72 | 0.458 | 0.575 | 0.507 | 0.768 | 0.56 | 0.816 | 0.633 | 0.667 | 0.911 | 0.912 | 0.889 | 0.847
32 | 0.871 | 0.95 | 0.798 | HNELYYEEAEH [VANGL1_Y345] | 2.06 | 1.21 | 0.993 | 1.63 | 2.08 | 1.81 | 1.53 | 0.751 | 0.798 | 1.32 | 1.11 | 0.936 | 0.708
33 | 0.95 | 0.732 | 0.346 | EFLQKYKGFKI [SYNE1_Y6953_YF] | 0.773 | 0.372 | 0.477 | 0.393 | 0.491 | 0.433 | 0.752 | 0.376 | 0.411 | 0.775 | 0.395 | 0.549 | 0.397
